assay: soluble on expression in E. coli; label from the status in PepcDB or PDB records

Soluble on expression in E. coli, soluble:
MGSSHHHHHHSSGLVPRGSPQPPADEQPEPRTRRRAYLWCKEFLPGAWRGLREDEFHISVIRGGLSNMLFQCSLPDTTATLGDEPRKVLLRLYGAILQMRSCNKEGSEQAQKENEFQGAEAMVLESVMFAILAERSLGPKLYGIFPQGRLEQFIPSRRLDTEELSLPDISAEIAEKMATFHGMKMPFNKEPKWLFGTMEKYLKEVLRIKFTEESRIKKLHKLLSYNLPLELENLRSLLESTPSPVVFCHNDCQEGNILLLEGRENSEKQKLMLIDFEYSSYNYRGFDIGNHFCEWMYDYSYEKYPFFRANIRKYPTKKQQLHFISSYLPAFQNDFENLSTEEKSIIKEEMLLEVNRFALASHFLWGLWSIVQAKISSIEFGYMDYAQARFDAYFHQKRKLGV
MSLRHLLRSLIGKTLAFFVEREDDNLTRVREHLMDLLDARPSPVRAQNLRSARQLLHKQADVFNRAFQAALQTSMDEEMRAVLPEAPASAVANDTSADPLDGMTLSLIDVCEVERILLVDRVAQRFTAHYDASVSALTQRLGVLLGRDVAALSSNPFRPEVFVRAFLLAWENSGLDKQATEDLMLSLDPLHSIDLTPLYADLNAMLTHAGIAAQPARRVIKSEGAGSSYLPLSPASAHAHLQGGEMRSGLGDLEPERARSAWDALAPAGRSIASHARQFLQRLGLASSSGQNDSGAGEGADWTPADGHETRTYLASADPEFMGYLGDLQAGAQAESAERILPGQHPGDRNVLRQMRDRDEVRRAPELDRGTVDALAEVFDFVFADQAIPVQMKFVIGRLQIPVLKAAMIDRDFFLSADHPARRLVDTLAQASIAWAPEKGESDPLYVRIENTVQRVLTEFEDDLALFSELLAEFTEFLFETEQQAQGRIEPAVDHERVGESFEQALAHADEVIHARIAALPSELPLAPFLAPFLTTQWREVLARAWLNVQASAAPWDSAVTSMDQLIWSTQPKTRIEERRQLVALLPELVRRLNAGLDAIEWVGEPRATFTRRLIATHMMAIRMTQAASVDSMSAALEANAGKEAMNELEQRRSGQLAGSVDDFDAMAQSFTRGLWFDFLLDEHTQHRCLLSWVSPMRTRLLFTNRDGFDAFVRSEREVAALLRHGRLHVIDQQPIVSRALDRIMSEGERKQEGHHHHHH
MALGPLVTGLYDVQAFKFGDFVLKSGLSSPIYIDLRGIVSRPRLLSQVADILFQTAQNAGISFDTVCGVPYTALPLATVICSTNQIPMLIRRKETKDYGTKRLVEGTINPGETCLIIEDVVTSGSSVLETVEVLQKEGLKVTDAIVLLDREQGGKDKLQAHGIRLHSVCTLSKMLEILEQQKKVDAETVGRVKRFIQEAHHHHHH
MQKKRFSKKYEVHYYEINSMQEATLLSLLNYMEDCAISHSTSAGYGVNELLAADAGWVLYRWLIKIDRLPKLGETITVQTWASSFERFYGNREFIVLDGRDNPIVKASSVWIYFNIKKRKPMRIPLEMGDAYGIDETRALEEPFTDFDFDFEPKVIEEFTVKRSDIDTNSHVNNKKYVDWIMETVPQQIYDNYKVTSLQIIYKKESSLGSGIKAGCVIDEQNTDNPRLLHKIWDKNTGLELVSAETIWQKIQS
MKNVGDLMQRLQKMMPAHITPAFKTGEELLAWQKEQGEIRAAALARENRAMKMQRTFNRSGIRPLHQNCSFDNYRVECDGQMNALSKARQYVDEFDGNIASFVFSGKPGTGKNHLAAAICNELLLRGKSVLIITVADIMSAMKDTFSNRETSEEQLLNDLSNVDLLVIDEIGVQTESRYEKVIINQIVDRRSSSKRPTGMLTNSNMEEMTKMLGERVMDRMRLGNSLWVNFTWDSYRSRVTGKEYLEHHHHHH
MAGLPDQRLANEALKRGDTVTAQQNYQQLAELGYSEAQVGLADIQVGTRDPAQIKQAEATYRAAADTSPRAQARLGRLLAAKPGATEAEHHEAESLLKKAFANGEGNTLIPLAMLYLQYPHSFPNVNAQQQISQWQAAGYPEAGLAQVLLYRTQGTYDQHLDDVERICKAALNTTDICYVELATVYQKKQQPEQQAELLKQMEAGVSRGTVTAQRVDSVARVLGDATLGTPDEKTAQALLEKIAPGYPASWVSLAQLLYDFPELGDVEQMMKYLDNGRAADQPRAELLLGKLYYEGKWVPADAKAAEAHFEKAVGREVAADYYLGQIYRRGYLGKVYPQKALDHLLTAARNGQNSADFAIAQLFSQGKGTKPDPLNAYVFSQLAKAQDTPEANDLATQLEAPLTPAQRAEGQRLVQQELAARGTLAQSTLQLHALQEEDGEESLLEHHHHHH
MSLSIPFDDSRGPYVLAMDIGSTASRGGLYDASGCPIKGTKQRESHEFTTGEGVSTIDADQVVSEITSVINGILNAADHHNIKDQIAAVALDSFASSLILVDGEGNALTPCITYADSRSAQYVEQLRAEIDEEAYHGRTGVCLHTSYHPSRLLWLKTEFEEEFNKAKYVMTIGEYVYFKLAGITGMATSIAAWSGILDAHTGELDLTILEHIGVDPALFGEIRNPDEPATDAKVVDKKWKHLEEIPWFHAIPDGWPSNIGPGAVDSKTVAVAAATSGAMRVILPSVPEQIPSGLWCYRVSRDQCIVGGALNDVGRAVTWLERTIIKPENLDEVLIREPLEGTPAVLPFFSGERSIGWAASAQATITNIQEQTGPEHLWRGVFEALALSYQRVWEHMGKAGAAPERVIASGRVSTDHPEFLAMLSDALDTPVIPLEMKRATLRGTALIVLEQLEPGGTRATPPFGTTHQPRFAHHYSKARELFDALYLKLVEGHHHHHH
MKNIAAQMVNFDREQMRRIANIDNQDMTISVWVFPDTDISDVSRELIAAIKQGYLTVKAAGVWAGGIETPSVETPSEGSKFFGFDMDNEFISGFDVGAWGVLL
MAHHHHHHMRCFSTKSTAPTKGFHDNASGKGSNSVPVKSSALFIEALSKRRTIYSLGNKLSQSHSEVIEIIEGTIRECPSSFNIKSSTVVILFGADHQKVWDIVKAALKKVTSEEQYAQSEMKVNNSFAAGAGTILFYEDGAAIKMQQKAFPRYAANVSTFSQQSSAMAQFAVWSALAQDGIGASLQHYNELIEADLRAAFDVPEEWQLIAQMPFGSIETPADKKTRNSDKGRVVVHGAQR
ASASTPHALLLISIDGLRADMLDRGITPNLSHLAREGVRARWMAPSYPSLTFPNHYTLVTGLRPDHHGIVHNSMRDPTLGGFWLSKSEAVGDARWWGGEPVWVGVENTGQHAATWSWPGSEAAIKGVRPSQWRHYQKGVRLDTRVDAVRGWLATDGAQRNRLVTLYFEHVDEAGHDHGPESRQYADAVRAVDAAIGRLLAGMQRDGTRARTNIIVVSDHGMAEVAPGHAISVEDIAPPQIATAITDGQVIGFEPLPGQQAAAEASVLGAHDHYDCWRKAELPARWQYGSHPRIPSLVCQMHEGWDALFPDKLAKRAQRGTRGSHGYDPALPSMRAVFLAQGPDLAQGKTLPGFDNVDVYALMSRLLGIPAAPNDGNPATLLPALRMPPAPDAR
MTTVSEQANFTFSPEEVARFERDGYIGPVKIFEPEEMTRRWNIIRRQLLDRSLAIYPDSNGKANISNYDRHLDIDLLAEHIMRPEIVDRVGSLIGRNLLCWRSEFFPKYQGDEGTDWHQAATFAHATGKPQIIWPSDEGRPAFIGTITVWTAFTHSTEQNGCLQLMPGTHTSMNYDESKGMDYDADAINQREKDGIKRGFFGYDYRSLQKDPDWKPDESQAYPMVLKPGEAVIFWSNTMHASLPHTGSKTDYRMGFAARYVPTQVQVYPGTENLTEYGDGINLEKYGAVLTSGVDEYGHNRIARTSQRGYEFVPRQIPS
HGSSHHHHHHSSENLYFQGHMWNSRKVGVLGGGQLGRMLVESANRLNIQVNVLDADNSPAKQISAHDGHVTGSFKEREAVRQLAKTCDVVTAEIEHVDTYALEEVASEVKIEPSWQAIRTIQNKFNQKEHLRKYGIPMAEHRELVENTPAELAKVGEQLGYPLMLKSKTMAYDGRGNFRVNSQDDIPEALEALKDRPLYAEKWAYFKMELAVIVVKTKDEVLSYPTVETVQEDSICKLVYAPARNVSDAINQKAQELARKAVAAFDGKGVFGVEMFLLEDDSIMLCEIASRIHNSGHYTIEGCALSQFDAHLRAILDLPIPAQSLEIRQPSIMLNIIGGAAPDTHLQAAECALSIPNASIHLYSKGAAKPGRKMGHITVTAPTMHEAETHIQPLIDVVDRIRA

Soluble on expression in E. coli, not soluble:
MDNKLGLNKMNKTLIALAVSAAAVATGAYADGINQSGDKAGSTVYSAKGTSLEVGGRAEARLSLKDGKAQDNSRVRLNFLGKAEINDSLYGVGFYEGEFTTNDQGKNASNNSLDNRYTYAGIGGTYGEVTYGKNDGALGVITDFTDIMSYHGNTAAEKIAVADRVDNMLAYKGQFGDLGVKASYRFADRNAVDAMGNVVTETNAAKYSDNGEDGYSLSAIYTFGDTGFNVGAGYADQDDQNEYMLAASYRMENLYFAGLFTDGELAKDVDYTGYELAAGYKLGQAAFTATYNNAETAKETSADNFAIDATYYFKPNFRSYISYQFNLLDSDKVGKVASEDELAIGLRYDF
MGLLDLIGRKRARDKPQNSYEGQDFSYLFGRTTSGENVDEFKTMQTTAVYACVRVLAEAVASLPIHIYERTENGKEKKLDHPLYFLLHDEPNPEMSSFIFRETIMSHLLIWGNAYVQIIRDKSGMVSLLLKQKASVLIRKLLLIIWQRMP
MGRIKQGLDYFPLSTDFMHDRIVRRVMKREGDSAFTVLIYIMSYLYSGEGYYVRADTDFCDELSDQLFSTDNDTVRRVIRLFLEYGLFDSALYERYSILTSEDVQRQYLFITKRRSRHHICPDYCLLPEEKTTDEQPDTVAATGENVAVSPNIATASRDTATKTALIKRKEKEKKENIFPNPPFAKGGDEEEGSEGEKVAEGAGGGMREECDQRSATRKRNLTQEDIDRMQVPPDGCPRNFSGLLENLRLFRVPPAEQYAIVLKSNYGEIGGDIWKGFSVIRGSGGKIKLPGHYLLSVLNK
GELDPVVTWGTTPGQGIGIDDPIPEPEDLADDKVDTARRAQKHMRVEPGETMEGYDIDVAFLGSCTNARLPDLRRAARIVKGREVADDVRAFVVPGSQRVQRAAEEEGLKDIFEEAGFEWRNAGCSMCLGMNEDQLEGDEACASSSNRNFVGRQGSKDGRTVLMNPRMVAAAAITGEVSDVRDLKEVTLA
MGSDKIHHHHHHMNIAFVINPVAGLGATLNLKGSDGLALEDVSKSISIVRSHRFLKKLDFNGLHFFVPSGCMGESEVSIYTKEYDVIYTPSSPTTRQDTINFVKSIESADLLVFVGGDGTARDILNSRNDLPVIGVPAGVKMYSSVFAISPERAADAVNQVAKGNYRIDKAEVVDIDEELYRKGILSVKRYGQLKVPEAQYIVENSKAEYDIAGAEDIAEYVIEHMADETYIIGPGNTCKTIEEEMGIKSNVLGFDILRNKKLIKEDASESEIYEACSDKCMLVISPVGGQNFLLGRGNKQISDRILERVGEENLIVVSSPSKAEHLKYVYIDTQIPLWSNGYVKVLVGYGRYKLVKVIR
MEPMHKINKVEVRNLQIEDYIQLSQSFKRVYADKDVFWTHEQIETLIRIFPEGQVVTVVDDKIVGCALSIIVDYDMVKGDHTYAKVTGNETFCTHNPEGNILYGIEVFIHPDYRGLRLARRMYEYRKELCEKLNLKAIMFGGRIPNYYKYADTMRPKEYLDKVRSREIYDPVLTFQLSNDFHVRRVMKNYLP
MKVVAFNGSPRKEGNTASLIKHVLAELDKEGIETEIVQIGGKSVHGCTACSKCFENRDRRCVIDNDIVNECIEKMLEADGIILASPTYFADLTPELKALIDRAGFVAKANSEMFRYKVGAAVVAVRRAGSIHVFDSINHFFTISQMIIPGSSYWNMGIGRAEGDVEKDDEGIRTMQILGQNMAWLLKKLNELEHHHHHH
MGLKAINTSLSKNDLAHLGAGEVGYIRKMRSEEVSRCFPEAPEMGPGIDLWALFGADGTPILLTDNRSSTFFKAAEDDLRTVSLH

Source: the DeepSol protein solubility set
